Data from publication PMC7954740, “Degradation of the low-calorie sugar substitute 5-ketofructose by different bacteria” (Applied Microbiology and Biotechnology, 2021).

Experiments:
Experiment in all cases: purified protein
[1] = system: O=C(CO)[C@@H](O)[C@H](O)C(=O)CO; format: biochemical, Gluconobacter oxydans; conditions: NADPH co-substrate, pH 7, 35 °C (optimum)
purified protein [2] = substrate: NC(=O)C1=CN([C@@H]2O[C@H](COP(=O)(O)OP(=O)(O)OC[C@H]3O[C@@H](n4cnc5c(N)ncnc54)[C@H](OP(=O)(O)O)[C@@H]3O)[C@@H](O)[C@H]2O)C=CC1; conditions: 5-KF co-substrate, pH 7.0, 30 °C, varied: cofactor
purified protein [3] = substrate: O=C(CO)[C@@H](O)[C@H](O)C(=O)CO; conditions: NADPH co-substrate, pH 7.0, 30 °C, potassium phosphate
purified protein [4] = substrate: O=C(CO)[C@@H](O)[C@H](O)C(=O)CO; format: biochemical, Gluconobacter oxydans; conditions: NADPH co-substrate, pH 7, 30 °C (optimum)
purified protein [5] = substrate: NC(=O)C1=CN([C@@H]2O[C@H](COP(=O)(O)OP(=O)(O)OC[C@H]3O[C@@H](n4cnc5c(N)ncnc54)[C@H](OP(=O)(O)O)[C@@H]3O)[C@@H](O)[C@H]2O)C=CC1; format: biochemical, Clostridium pasteurianum; conditions: 5-KF co-substrate, pH 6, 40 °C (optimum), varied: cofactor
purified protein [6] = substrate: O=C(CO)[C@@H](O)[C@H](O)C(=O)CO; format: biochemical, Clostridium pasteurianum; conditions: NADPH co-substrate, pH 6, 40 °C (optimum)

Molecule: GOX0644 (Gluconobacter oxydans 621H)
- Km [1]: 4.0 ± 0.8 mM
- kcat [1]: 18.9 ± 1.2 s⁻¹

B1: TM-KFR (Tatumella morbirosei) (protein)
chain: AEQQNFLSELTGSFSSPCNENPTVAMMEEAYRHQGINARYINCDVGKQQLEMAVAGAKAMGWRGFNCSIPNKQAILSYIDEVGTSAKVIGAVNCVIIREGKLTGENTDGKGFVEALKQQIDPEGKKLALLGAGGAARAIAVESALAGVSEITIINRDKAKGEALAELINANTDATATYVEWSSGLKVDKNFDILVNATSVGLDDAEAMPDIDTDSLSEELFVADVIPNPPQTALLRAASDKGCRTLNGLNMLVNQGALNLAYWFDTTADKAPMRKVLQTLFTG
- Km (purified protein [2]): 20.4 ± 11.5 µM
- Km (purified protein [3]): 6.4 ± 0.6 mM
- kcat (purified protein [3]): 913.9 ± 85.2 s⁻¹

B2: GOX1432 (Gluconobacter oxydans 621H) (protein)
chain: MITRETLKSLPANVQAPPYDIDGIKPGIVHFGVGNFFRAHEAFYVEQILEHAPDWAIVGVGLTGSDRSKKKAEEFKAQDCLYSLTETAPSGKSTVRVMGALRDYLLAPADPEAVLKHLVDPAIRIVSMTITEGGYNINETTGAFDLENAAVKADLQNPEKPSTVFGYVVEALRRRRDAGGKAFTVMSCDNLRHNGNVARKAFLGYAKARDPELAKWIEENATFPNGMVDRITPTVSAEIAKKLNAASGLDDDLPLVAEDFHQWVLEDRFANGRPPLEKAGVQLVDDVTDWEHVKIRMLNAGHITLCFPGILVGYENVDDAIEDKDLRGNLENYLNKDVIPTLKAPPGMTLEGYRDSVISRFSNKAMSDQTLRIASDGCSKIQVFWTETVRRAIECKRDLSRIAFGIASYLEMLRGRDEKGGTYESSEPTYGEAQKKLAKADDFESALKLPAFDGWRDLDTSELDQKVIALRKVIREKGVKAAIPA
- Km (purified protein [4]): 42.0 ± 5.4 mM
- kcat (purified protein [4]): 214.6 ± 7.5 s⁻¹

B3: CP-AKR (Clostridium pasteurianum DSM 525 = ATCC 6013) (protein)
chain: MVKSIKDVITLNNGVEIPQHGFGVYLITDEEKAYKAINKALEVGYRAFDTAQFYENEPLLGKILNESSLSRDELFITTKVANYNQGYDSTLSTVEQSLKDLRVDQLDLLLIHWPSKKRFFETWRAMEKLYNEKLVKAIGVSNYEIHHLEELISNSDIKPVIDQVESHPYLIQQELKDYVDKNNIAFQAWSPLGRGAVLKDPIIKIIAEQHNKSIAQVIIRWHLQKGNIVIPKSITPSRIEENADVYDFALTEEEMKIIDALNRAERTGDDPDSIYFQM
- Km (purified protein [5]): 12.4 ± 3.8 µM
- Km (purified protein [6]): 1.3 ± 0.2 mM
- kcat (purified protein [6]): 29.3 ± 4.3 s⁻¹
